The source of these data is patent US20080038248A1 (published 2008).

B1: UL16 Fc fusion (Fc fusion)
chain: VDLGSKSSNSTCRLNVTELASIHPGETWTLHGMCISICYYENVTEDEIIGVAFTWQHNESVVDLWLYQNDTVIRNFSDITTNILQDGLKMRTVPVTKLYTSRMVTNLTVGRYDCLRCENGTTKIIERLYVRLGSLYPRPPGSGLAKHPSVSADEELSA
notes: not shown: human IgG1 CH2-CH3, C-terminal to UL16 (vector SignalpIgplus)
B2: NKG2D-Fc fusion protein (Fc fusion, human, UniProt P26718 73-216, looked up)
chain: IWSAVFLNSLFNQEVQIPLTESYCGPCPKNWICYKNNCYQFFDESKNWYESQASCMSQNASLLKVYSKEDQDLLKLVKSYHWMGLVHIPTNGSWQWEDGSILSPNLLTIIEMQKGDCALYASSFKGYIENCSTPNTYICMQRTV
notes: Produced in 293T cells, purified on Protein A. 'The fusion was C-terminal to human IgG1 hinge-CH2-CH3 domains'; also called recombinant soluble Fc fusion protein of NKG2D; not shown: human IgG1 hinge-CH2-CH3 domains, N-terminal to NKG2D (in pcDNA3.0)
B3: soluble recombinant extracellular domain of RAET1G, 6-Histidine N-terminal fusion (ligand, human)
chain: HHHHHHGLADPHSLCYDITVIPKFRPGPRWCAVQGQVDEKTFLHYDCGSKTVTPVSPLGKKLNVTTAWKAQNPVLREVVDILTEQLLDIQLENYIPKEPLTLQARMSCEQKAEGHGSGSWQLSFDGQIFLLFDSENRMWTTVHPGARKMKEKWENDKDMTMSFHYISMGDCTGWLEDFLMGMDSTLEPSAGAPPTMSSGTAQPR
notes: extracellular domain; also called 6-His tagged recombinant RAET1G

Assay [1] has as its target T1, soluble recombinant extracellular domain of RAET1E, 6-Histidine N-terminal fusion (human, UniProt Q8TD07 31-225).
T1 construct: extracellular domain
T1 sequence: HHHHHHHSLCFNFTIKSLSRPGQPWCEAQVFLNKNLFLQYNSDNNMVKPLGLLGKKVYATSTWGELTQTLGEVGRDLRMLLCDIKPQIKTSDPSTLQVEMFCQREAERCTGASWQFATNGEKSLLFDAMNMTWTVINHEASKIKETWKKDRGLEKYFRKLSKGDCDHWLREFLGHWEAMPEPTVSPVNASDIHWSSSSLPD
The experiment in a line: SPR (BIACore 2000), UL16-Fc captured on anti-human IgG, RAET1E as analyte; derived from joint fit.

Assay [2] concerns the target T1, soluble recombinant extracellular …. The experiment in a line: SPR (BIACore 2000), UL16-Fc captured on anti-human IgG, RAET1E as analyte; joint global fit.
Assay [3] deals with B3. The experiment in a line: SPR (BIACore 2000), UL16-Fc captured on anti-human IgG, RAET1G as analyte; joint global fit.
Assay [4] deals with T2, soluble recombinant extracellular domain of ULBP1, 6-Histidine N-terminal fusion (human, UniProt Q9BZM6 26-216, limits assumed).
T2 construct: extracellular domain
T2 sequence: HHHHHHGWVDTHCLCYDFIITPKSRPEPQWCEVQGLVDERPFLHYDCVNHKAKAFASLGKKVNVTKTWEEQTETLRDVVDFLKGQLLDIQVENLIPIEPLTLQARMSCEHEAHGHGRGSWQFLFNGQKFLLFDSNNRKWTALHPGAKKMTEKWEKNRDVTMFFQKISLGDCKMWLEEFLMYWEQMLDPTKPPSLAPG
The experiment in a line: SPR (BIACore 2000), UL16-Fc captured on anti-human IgG, ULBP1 as analyte; derived from joint fit.

Assay [5] has as its target B3. The experiment in a line: SPR (BIACore 2000), UL16-Fc captured on anti-human IgG, RAET1G as analyte; derived from joint fit.
For assay [6], the target named is T2, soluble recombinant extracellular …. The experiment in a line: SPR (BIACore 2000), UL16-Fc captured on anti-human IgG, ULBP1 as analyte; joint global fit.
For assay [7], the target named is T1, soluble recombinant extracellular …. The experiment in a line: SPR (BIACore 2000), NKG2D-Fc captured on anti-human IgG, RAET1E as analyte; derived from joint fit.
Description: (§1) SPR was carried out on a BIACore2000 machine. Running buffer, sensor chips and surface coupling reagents were from BIACore. Anti Human IgG (Dako) was coupled to a CM5 surface using NHS/EDC chemistry. […] Surface regeneration was using 5 μl of 10 mM HCl. […] Kinetic analysis was performed using BIAEvaluation 3.1 software.
The target of assay [8] is T2, soluble recombinant extracellular …. The experiment in a line: SPR (BIACore 2000), NKG2D-Fc captured on anti-human IgG, ULBP1 as analyte; joint global fit.
Description: as §1
Assay [9] has the same target. The experiment in a line: SPR (BIACore 2000), NKG2D-Fc captured on anti-human IgG, ULBP1 as analyte; separate off-rate fit.
Description: as §1
Assay [10] shares this target. The experiment in a line: SPR (BIACore 2000), NKG2D-Fc captured on anti-human IgG, ULBP1 as analyte; derived from joint fit.
Description: as §1
Assay [11] has as its target T3, soluble recombinant extracellular domain of ULBP2, 6-Histidine N-terminal fusion (human, UniProt Q9BZM5 26-217, limits assumed).
T3 construct: extracellular domain
T3 sequence: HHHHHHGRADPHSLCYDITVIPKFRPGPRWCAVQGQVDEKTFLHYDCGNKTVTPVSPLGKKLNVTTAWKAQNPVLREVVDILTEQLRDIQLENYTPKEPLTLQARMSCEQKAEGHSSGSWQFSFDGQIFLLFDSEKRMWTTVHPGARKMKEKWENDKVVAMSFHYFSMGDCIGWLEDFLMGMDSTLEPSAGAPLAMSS
The experiment in a line: SPR (BIACore 2000), NKG2D-Fc captured on anti-human IgG, ULBP2 as analyte; derived from joint fit.
Description: as §1

Assay [12] deals with B3. The experiment in a line: SPR (BIACore 2000), NKG2D-Fc captured on anti-human IgG, RAET1G as analyte; joint global fit.
Description: as §1
Assay [13] concerns the target T3, soluble recombinant extracellular …. The experiment in a line: SPR (BIACore 2000), NKG2D-Fc captured on anti-human IgG, ULBP2 as analyte; joint global fit.
Description: as §1
Assay [14] addresses T4, soluble recombinant extracellular domain of ULBP3, 6-Histidine N-terminal fusion (human, UniProt Q9BZM4 30-217, limits assumed).
T4 construct: extracellular domain
T4 sequence: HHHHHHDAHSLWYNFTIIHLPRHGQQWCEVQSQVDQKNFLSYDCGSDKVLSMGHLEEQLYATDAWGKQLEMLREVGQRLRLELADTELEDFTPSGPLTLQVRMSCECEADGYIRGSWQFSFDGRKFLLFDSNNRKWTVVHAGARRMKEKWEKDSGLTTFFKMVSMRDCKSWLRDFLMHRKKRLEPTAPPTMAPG
The experiment in a line: SPR (BIACore 2000), NKG2D-Fc captured on anti-human IgG, ULBP3 as analyte; derived from joint fit.
Description: as §1

In assay [15] the target is T4, soluble recombinant extracellular …. The experiment in a line: SPR (BIACore 2000), NKG2D-Fc captured on anti-human IgG, ULBP3 as analyte; joint global fit.
Description: as §1
Assay [16] has the same target. The experiment in a line: SPR (BIACore 2000), NKG2D-Fc captured on anti-human IgG, ULBP3 as analyte; separate off-rate fit.
Description: as §1
Assay [17] addresses B3. The experiment in a line: SPR (BIACore 2000), NKG2D-Fc captured on anti-human IgG, RAET1G as analyte; separate off-rate fit.
Description: as §1
The target in assay [18] is T1, soluble recombinant extracellular …. The experiment in a line: SPR (BIACore 2000), NKG2D-Fc captured on anti-human IgG, RAET1E as analyte; separate off-rate fit.
Description: as §1
In assay [19] the target is B3. The experiment in a line: SPR (BIACore 2000), NKG2D-Fc captured on anti-human IgG, RAET1G as analyte; derived from joint fit.
Description: as §1
Assay [20] addresses T1, soluble recombinant extracellular …. The experiment in a line: SPR (BIACore 2000), NKG2D-Fc captured on anti-human IgG, RAET1E as analyte; joint global fit.
Description: as §1
The target in assay [21] is T3, soluble recombinant extracellular …. The experiment in a line: SPR (BIACore 2000), NKG2D-Fc captured on anti-human IgG, ULBP2 as analyte; separate off-rate fit.
Description: as §1
The assay “UL16 Fc fusion” deals with B1. The experiment in a line: SPR (BIACore 2000); kon on UL16-Fc against kon on NKG2D-Fc.
The target of the assay “NKG2D-Fc fusion protein” is B2. The experiment in a line: SPR (BIACore 2000); RAET1G against ULBP2 on NKG2D-Fc.
Description: as §1

As to B1, the dissociation constant Kd in assay [1] was 504 nM; in assay [4] it was 243 nM; in assay [5] it was 75.6 nM. Besides, the off-rate constant (koff) turned out to be 0.00595 s⁻¹ in [2], 0.00871 s⁻¹ in assay [3] and 0.000597 s⁻¹ in assay [6]. Further, the on-rate (kon) in assay [2] came to 11800 M⁻¹ s⁻¹; in [3], 115000 M⁻¹ s⁻¹; in assay [6], 2460 M⁻¹ s⁻¹.

Consider B2, for which the dissociation constant (Kd) in [7] worked out at 39 nM; in [10], 1680 nM; in assay [11] it was 7160 nM; in assay [14], 2290 nM; in [19], 356 nM. In addition, the off-rate constant (koff) in [8] was 0.0073 s⁻¹; in assay [9], 0.0069 s⁻¹; in [12] it was 0.00374 s⁻¹; in assay [13], 0.063 s⁻¹; in assay [15], 0.00537 s⁻¹; in assay [16], 0.005 s⁻¹. Also, the koff in [17] is 0.003 s⁻¹; in assay [18], 0.005 s⁻¹; in assay [20] it was 0.00292 s⁻¹; in assay [21], 0.0336 s⁻¹. In addition, the kon was determined as 4360 M⁻¹ s⁻¹ in assay [8], 10500 M⁻¹ s⁻¹ in [12], 2350 M⁻¹ s⁻¹ in assay [15] and 74900 M⁻¹ s⁻¹ in assay [20].

As to B3, the “fold faster association rate for UL16 than for NKG2D” value with UL16 Fc fusion came to 10 fold. Also, in the assay with NKG2D-Fc fusion protein, the “fold difference in affinity against ULBP2” value came to 20 fold.
